In patent publication US20090035322A1 (Regeneron, published 2009):
Positions count from the first letter of the chain named.

T1: human CD20 (human, UniProt P11836 1-297)
T1 sequence: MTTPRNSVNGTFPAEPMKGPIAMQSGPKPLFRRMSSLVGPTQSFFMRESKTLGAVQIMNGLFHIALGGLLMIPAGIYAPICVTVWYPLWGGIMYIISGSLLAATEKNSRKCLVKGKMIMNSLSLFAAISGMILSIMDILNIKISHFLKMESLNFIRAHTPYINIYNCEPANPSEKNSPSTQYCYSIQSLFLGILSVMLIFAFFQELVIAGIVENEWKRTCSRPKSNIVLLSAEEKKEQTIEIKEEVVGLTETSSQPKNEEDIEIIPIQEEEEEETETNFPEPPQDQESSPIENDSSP

T2: mutant human CD20 #7 (Y77F, N163D) (human, UniProt P11836 1-297)
T2 construct: Stably expressed on MG87 cells
T2 chain: T1 sequence with Y77F, N163D

T3: mutant human CD20 #9 (N163D, N166D) (human, UniProt P11836 1-297)
T3 construct: Stably expressed on MG87 cells
T3 chain: T1 sequence with N163D, N166D

T4: mutant human CD20 #1 (Y77F) (human, UniProt P11836 1-297)
T4 construct: Human residues replaced by mouse residues; stably expressed on MG87 cells
T4 sequence: T1 sequence with Y77F

T5: mutant human CD20 #8 (Y77F, N163D, N166D) (human, UniProt P11836 1-297)
T5 construct: Stably expressed on MG87 cells
T5 chain: T1 sequence with Y77F, N163D, N166D

B1: 10E3-17 (antibody, V domains shown)
VH: EVQLVESGGGLVQPGRSLRLSCAASGFTFRDYAMHWVRQVPGKGLEWVSGISWNRGTIGYADSVKGRFTISRDNAKNSLFLQMNSLRADDTALYYCAKDHYYGSGSPYGMDVWGQGTTVTVSS
VL: EIVLTQSPATLALSPGERATLSCRASQSVSKYLAWYQQKPGQAPRLLIYDASKRVTGIPGRLSGSGSGTDFTLTISSLEPEDFALYYCQQSSNWPITFGQGTRVEIK
notes: Fully human IgG, constant region not specified; also called 10E3-17N
B2: 6F6-1 (antibody, V domains shown)
VH: AVQLVESGGGLVQPGRSLRLSCAASGFTFRDYAMHWVRQGPGKGLEWVSGISWNTDYIGYADSVKGRFTISRDNAKNSLYLQMNSLRPEDTALYYCAKDARYGRDNYYGMDVWGQGTTVTVSS
VL: EIVMTQSPATLSVSPGERATLSCRASQSVSHNLAWYQQKPGQAPRLLIYGAYTRATGIPDRFSGTGSGTEFTLTISSLQSEDFAVFYCQQYNNWPLTFGGGTKVEIK
notes: Fully human IgG, constant region not specified; also called 6F6-1N
B3: 9E4-20 (antibody, V domains shown)
VH: B2 VH with A1E, R30Y, G40A, T55S, P88A, D105N, Q115P
VL: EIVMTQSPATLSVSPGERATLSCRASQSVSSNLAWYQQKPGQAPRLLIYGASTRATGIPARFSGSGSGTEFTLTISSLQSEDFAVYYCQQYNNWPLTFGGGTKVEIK
notes: Fully human IgG, constant region not specified; also called 9E4-20N
B4: 9C11-14 (antibody, V domains shown)
VH: QVQLVESGGDSVKPGGSLRLSCAASGFTFSDSYMTWIRQAPGKGLEWVSFISSSGSTIYYADSVKGRFTISRDNVKKSLYLQMNRLRAEDTAVYYCAREEPGNYVYYGMDVWGQGTTVTVSS
VL: EIVVTQSPATLSLSPGERATLSCRTSQTTTSYLAWYRQKPGQAPRLLIYDASNRAAGIPARFSGSGSGTDFTLTINSLEPEDFAVYYCQLRTNWITFGQGTRLEIK
notes: Fully human IgG, constant region not specified; also called 9C11-14N
B5: 10F2-13 (antibody, V domains shown)
VH: EEQLVESGGDLVQPGRSLRLSCAASGFTFHDYTMHWVRQAPGKGLEWVSGISWNSGSLGYADSVKGRFTISRDNAKKSLYLQMNSLRAEDTALYYCAKDPSYGSGSYHSYYGMDVWGQGTTVTVSS
VL: EIVLTQSPATLSLSPGERATLSCWASQSISRYLVWYQQKCGQAPRLLIYEASKRATGIPVRFSGSGSGTDFTLTISSLESEDFAVYYCQQRFNWPLTFGGGTKVEIK
notes: Fully human IgG, constant region not specified; also called 10F2-13N; ab 10F2-13
B6: 9D4-7 (antibody, V domains shown)
VH: EVQLVESGGGLVQPGRSLRLSCAASGFTFYDYAMHWVRQAPGKGLEWVSGISWNSDTIGYADSVKGRFTISRDNAKNSLYLQMNSLRAEDTALYYCTKDGSYGHFYSGLDVWGQGTTVTVSS
VL: EIVLTQSPATLSLSPGERATLSCRASQSVSSYLAWYQQKPGQAPRLLIYVASNRATGIPARFSGSGSGTDFTLTISSLEPDDFAVYYCQQRYYWPLTFGGGTKVEIK
notes: Fully human IgG, constant region not specified; also called 9D4-7N
B7: 2B7-7 (antibody, V domains shown)
VH: EVQLVESGGGLVQPGRSLRLSCAASGFTFRDYTMHWVRQGPGKGLEWVSGISWNSDYIGYADSVKGRFTISRDNAKNSLYLQMNSLRVEDTALYYCAKLSGTYRDYFYGVDVWGQGTTVTVSS
VL: B6 VL with T20A, S31N, V50D, D81E, Y92S, Y93N, K107R
notes: Fully human IgG, constant region not specified; also called 2B7-7N
B8: 8G6-5 (antibody, V domains shown)
VH: EVQLAESGGDLVQSGRSLRLSCAASGITFHDYAMHWVRQPPGKGLEWVSGISWNSDYIGYADSVKGRFTISRDNAKKSLYLQMNSLRPDDTALYYCVKDFHYGSGSNYGMDVWGQGTTVTVSP
VL: EIVMTQSPATLSMSPGERATLSCRASQSVSRNLAWYQQKVGQAPRLLISGASTRATGIPARFSGSGSGTEFTLTINSLQSEDFAVYYCQQSNDWPLTFGQGTRLEIK
notes: Fully human IgG, constant region not specified; also called 8G6-5N

The binders below were run against T1, human CD20 (assay: cell-based or functional assay).

Row | Binder | % Cytotoxicity (CDC, Daudi), 0 hour | % Cytotoxicity (CDC, Daudi), 1 hour | % Cytotoxicity (CDC, Daudi), 6 hour
1 | B1 | 97% | 96.2% | 79.2%
2 | B2 | 97.1% | 97.1% | 76.4%
3 | B3 | 67.4% | 31.2% | 49.9%

Biological target: T1, human CD20
Assay: cell-based or functional assay
Remark: another data set of the same source

Row | Binder | % Cytotoxicity (CDC, Daudi), 0 hour | % Cytotoxicity (CDC, Daudi), 1 hour | % Cytotoxicity (CDC, Daudi), 6 hour
4 | B4 | 55.8% | 22.3% | 12.9%
5 | B5 | 99.6% | 99.2% | 98.5%
6 | B6 | 99.4% | 99% | 96%
7 | B7 | 99.4% | 99.4% | 98.3%
8 | B8 | 99.6% | 99.2% | 97.7%

These binders were tested against T1, human CD20 (assay: flow cytometry, hCD20-transfected MG87 cells).
Method: Briefly, parental MG87 and human CD20-transfected MG87 cells were incubated for 30 min at 4° C. with each of the 15 human antibodies and the two control antibodies, followed by incubation with PE-conjugated anti-human IgG antibody. Binding was assessed by flow cytometry. Fluorescence intensities were compared with binding to the parental cell line and control isotype-matched sample.

Row | Binder | Total Mean Fluorescent Intensity
9 | B1 | 3070
10 | B2 | 3390
11 | B3 | 2910
12 | B4 | 2750
13 | B5 | 3400
14 | B6 | 3160
15 | B7 | 3480
16 | B8 | 3410

Biological target: T2, mutant human CD20 #7 (Y77F, N163D)
Assay: FACS, mutant-hCD20 MG87 cells; 100%=best antibody
Method: (§1) Briefly, approximately 1×10⁶ cells from each stably transfected cell line expressing a mutant human CD20 were collected and incubated with each anti-human antibody, at 10 μg/ml, on ice for 1 hr, followed by incubation with APC-conjugated goat anti-human IgG (Jackson Immunolabs), at 10 μg/ml, on ice for 45 min. For each antibody, binding to each mutant human CD20 was assessed by flow cytometry.

Row | Binder | Percent of Binding to Mutant Human CD20
17 | B1 | 1%
18 | B2 | 2%
19 | B3 | 1%
20 | B4 | 96%
21 | B5 | 2%
22 | B6 | 2%
23 | B7 | 2%
24 | B8 | 1%

Biological target: T3, mutant human CD20 #9 (N163D, N166D)
Assay: FACS, mutant-hCD20 MG87 cells; 100%=best antibody
Method: as §1

Row | Binder | Percent of Binding to Mutant Human CD20
25 | B1 | 4%
26 | B2 | 4%
27 | B3 | 3%
28 | B4 | 100%
29 | B5 | 4%
30 | B6 | 4%
31 | B7 | 4%
32 | B8 | 4%

These binders were tested against T4, mutant human CD20 #1 (Y77F) (assay: FACS, mutant-hCD20 MG87 cells; 100%=best antibody).
Method: as §1

Row | Binder | Percent of Binding to Mutant Human CD20
33 | B1 | 61%
34 | B2 | 100%
35 | B3 | 14%
36 | B4 | 89%
37 | B5 | 79%
38 | B6 | 67%
39 | B7 | 100%
40 | B8 | 86%

Biological target: T5, mutant human CD20 #8 (Y77F, N163D, …)
Assay: FACS, mutant-hCD20 MG87 cells; 100%=best antibody
Method: as §1

Row | Binder | Percent of Binding to Mutant Human CD20
41 | B1 | 0%
42 | B2 | 0%
43 | B3 | 0%
44 | B4 | 100%
45 | B5 | 0%
46 | B6 | 0%
47 | B7 | 0%
48 | B8 | 0%

Biological target: T1, human CD20
Assay: cell-based or functional assay
Remark: another data set of the same source

Row | Binder | CDC, Daudi EC50 | CDC, RL EC50
49 | B1 | 0.59 nM | 7.8 nM
50 | B2 | 0.56 nM | 1.2 nM
51 | B3 | 1.53 nM | 1.7 nM
52 | B4 | 7.14 nM | 12 nM
53 | B5 | 0.17 nM | 0.36 nM
54 | B6 | 0.22 nM | 0.83 nM
55 | B7 | 0.24 nM | 1.03 nM
56 | B8 | 0.21 nM | 1.06 nM
